# From patent publication US20250277048A1 (Regeneron, published 2025)
# T1: mouse CD40 extracellular domain expressed with a C-terminal myc-myc-hexahistidine tag (mouse)
# T1 construct: also called mCD40-MMH; REGN3098
# T1 chain: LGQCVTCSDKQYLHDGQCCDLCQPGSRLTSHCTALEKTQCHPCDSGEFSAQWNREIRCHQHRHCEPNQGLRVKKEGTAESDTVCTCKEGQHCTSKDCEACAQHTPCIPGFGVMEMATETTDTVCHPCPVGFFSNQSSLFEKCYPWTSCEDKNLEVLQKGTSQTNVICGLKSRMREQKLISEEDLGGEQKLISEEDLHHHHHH
# B1: REGN16431 (bispecific antibody, human IgG4 S228P, kappa)
# heavy 1: QLQLQESGPGLVRPSETLSLTCSVSGASMNTNNYYWGWIRQPPGKGLEWIGSGYYNGNTYYNPSLKSRVTISVDTSKNQFSLKLNSVTAADTAVYYCARQTPPRIIGSPNIWGQGTMVTVSSASTKGPSVFPLAPCSRSTSESTAALGCLVKDYFPEPVTVSWNSGALTSGVHTFPAVLQSSGLYSLSSVVTVPSSSLGTKTYTCNVDHKPSNTKVDKRVESKYGPPCPPCPAPPVAGPSVFLFPPKPKDTLMISRTPEVTCVVVDVSQEDPEVQFNWYVDGVEVHNAKTKPREEQFNSTYRVVSVLTVLHQDWLNGKEYKCKVSNKGLPSSIEKTISKAKGQPREPQVYTLPPSQEEMTKNQVSLTCLVKGFYPSDIAVEWESNGQPENNYKTTPPVLDSDGSFFLYSRLTVDKSRWQEGNVFSCSVMHEALHNHYTQKSLSLSLGK
# heavy 2: EVQLVESGGGLVQPGGSLRLSCAASGFTFGSYGMAWVRQAPGKGLEWVSAISGSGDYTNYADSVKRRFTISRDNSKNTLYLQMSSLRAEDTAVYYCAKEKTGTTGYLYSGMDVWGQGTTVTVSSASTKGPSVFPLAPCSRSTSESTAALGCLVKDYFPEPVTVSWNSGALTSGVHTFPAVLQSSGLYSLSSVVTVPSSSLGTKTYTCNVDHKPSNTKVDKRVESKYGPPCPPCPAPPVAGPSVFLFPPKPKDTLMISRTPEVTCVVVDVSQEDPEVQFNWYVDGVEVHNAKTKPREEQFNSTYRVVSVLTVLHQDWLNGKEYKCKVSNKGLPSSIEKTISKAKGQPREPQVYTLPPSQEEMTKNQVSLTCLVKGFYPSDIAVEWESNGQPENNYKTTPPVLDSDGSFFLYSRLTVDKSRWQEGNVFSCSVMHEALHNRFTQKSLSLSPGK
# light: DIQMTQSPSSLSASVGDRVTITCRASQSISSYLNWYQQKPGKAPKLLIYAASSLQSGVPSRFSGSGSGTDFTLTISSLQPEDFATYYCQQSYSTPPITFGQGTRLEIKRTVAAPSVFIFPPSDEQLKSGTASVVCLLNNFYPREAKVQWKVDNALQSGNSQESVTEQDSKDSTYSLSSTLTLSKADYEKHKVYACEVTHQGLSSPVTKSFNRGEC
# notes: D1 arm from 21519P2, D2 arm from 21520P2, common light chain; also called CD40xCD40 (21519 x 21520)
# B2: REGN16432 (bispecific antibody, human IgG4 S228P, kappa)
# heavy 1: EVQLVESGGGLVQPGGSLRLSCAASGFTFSSYAMNWVRQAPGKGLEWVSIISGTIGKTYYADSVKGRFTISRDNSKNTLYLQMNSLRGEDTAVYYCAKDTERDITGSPFDYWGQGTLVTVSSASTKGPSVFPLAPCSRSTSESTAALGCLVKDYFPEPVTVSWNSGALTSGVHTFPAVLQSSGLYSLSSVVTVPSSSLGTKTYTCNVDHKPSNTKVDKRVESKYGPPCPPCPAPPVAGPSVFLFPPKPKDTLMISRTPEVTCVVVDVSQEDPEVQFNWYVDGVEVHNAKTKPREEQFNSTYRVVSVLTVLHQDWLNGKEYKCKVSNKGLPSSIEKTISKAKGQPREPQVYTLPPSQEEMTKNQVSLTCLVKGFYPSDIAVEWESNGQPENNYKTTPPVLDSDGSFFLYSRLTVDKSRWQEGNVFSCSVMHEALHNHYTQKSLSLSLGK
# heavy 2: B1 heavy 2
# light: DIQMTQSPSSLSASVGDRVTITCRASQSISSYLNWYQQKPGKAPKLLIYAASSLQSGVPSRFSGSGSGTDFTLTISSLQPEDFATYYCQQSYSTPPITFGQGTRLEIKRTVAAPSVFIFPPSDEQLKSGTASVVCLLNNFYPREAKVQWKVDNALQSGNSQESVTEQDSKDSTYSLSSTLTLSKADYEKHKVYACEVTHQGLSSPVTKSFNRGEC
# notes: D1 arm from 30027P2, D2 arm from 21520P2, common light chain; also called CD40xCD40 (30027 x 21520)
# B3: 21519P2 (antibody, human IgG4 S228P, kappa, V domains shown)
# VH: QLQLQESGPGLVRPSETLSLTCSVSGASMNTNNYYWGWIRQPPGKGLEWIGSGYYNGNTYYNPSLKSRVTISVDTSKNQFSLKLNSVTAADTAVYYCARQTPPRIIGSPNIWGQGTMVTVSS
# VL: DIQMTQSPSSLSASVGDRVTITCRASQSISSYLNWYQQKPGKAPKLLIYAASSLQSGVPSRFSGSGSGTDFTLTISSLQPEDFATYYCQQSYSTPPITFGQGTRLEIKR
# notes: parental bivalent anti-CD40 mAb; common light chain; also called H4sH21519P2
# B4: 21520P2 (antibody, human IgG4 S228P, kappa, V domains shown)
# VH: EVQLVESGGGLVQPGGSLRLSCAASGFTFGSYGMAWVRQAPGKGLEWVSAISGSGDYTNYADSVKRRFTISRDNSKNTLYLQMSSLRAEDTAVYYCAKEKTGTTGYLYSGMDVWGQGTTVTVSS
# VL: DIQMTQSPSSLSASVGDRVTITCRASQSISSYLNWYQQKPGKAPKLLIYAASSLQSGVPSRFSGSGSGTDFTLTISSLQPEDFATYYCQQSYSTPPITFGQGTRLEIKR
# notes: parental bivalent anti-CD40 mAb; common light chain; also called H4sH21520P2
# B5: 30027P2 (antibody, human IgG4 S228P, kappa, V domains shown)
# VH: EVQLVESGGGLVQPGGSLRLSCAASGFTFSSYAMNWVRQAPGKGLEWVSIISGTIGKTYYADSVKGRFTISRDNSKNTLYLQMNSLRGEDTAVYYCAKDTERDITGSPFDYWGQGTLVTVSS
# VL: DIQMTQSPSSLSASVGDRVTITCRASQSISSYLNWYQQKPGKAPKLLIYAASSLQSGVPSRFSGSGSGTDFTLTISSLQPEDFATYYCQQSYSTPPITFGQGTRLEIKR
# notes: parental bivalent anti-CD40 mAb; common light chain; also called H4sH30027P2
# Target: T2, human CD40 (hCD40) expressed on cells (human, UniProt P25942 21-277)
# Test: cell-based or functional assay
# T2 sequence (P25942 21-277): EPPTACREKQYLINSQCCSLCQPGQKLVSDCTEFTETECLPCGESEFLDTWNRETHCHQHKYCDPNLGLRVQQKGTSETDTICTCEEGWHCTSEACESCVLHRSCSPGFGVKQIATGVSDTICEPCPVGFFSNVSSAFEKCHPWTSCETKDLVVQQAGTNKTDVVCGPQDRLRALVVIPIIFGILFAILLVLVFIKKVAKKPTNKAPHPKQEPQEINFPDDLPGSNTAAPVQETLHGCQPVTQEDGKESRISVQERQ
"% max blockade relative to no mAb, IL-6, donor 1","% max blockade relative to no mAb, IL-6, donor 2","% max blockade relative to no mAb, IL-6, donor 3",Binder
84%,92.7%,92.7%,B1
83.5%,92%,92%,B2

# Target: T2, human CD40 (hCD40) expressed on cells
# Test: cell-based or functional assay
# Remark: another data set of the same source
"% max blockade relative to no mAb, IL-10, donor 1","% max blockade relative to no mAb, IL-10, donor 2","% max blockade relative to no mAb, IL-10, donor 3",Binder
80.7%,86.9%,89.3%,B1
81.5%,94.5%,90.6%,B2

# Target: T2, human CD40 (hCD40) expressed on cells
# Test: cell-based or functional assay
# Remark: another data set of the same source
"% max blockade relative to no mAb, TNFa, donor 1","% max blockade relative to no mAb, TNFa, donor 2","% max blockade relative to no mAb, TNFa, donor 3",Binder
44.7%,74.1%,70.4%,B1
53.5%,68.4%,69.1%,B2

# Target: T1, mouse CD40 extracellular domain …
# Test: SPR Biacore 4000, mAb captured, 37C
# Protocol: (§1) The equilibrium dissociation constants (KD) for anti-CD40 bivalent and bispecific monoclonal antibodies (mAbs) were determined using a real-time surface plasmon resonance (SPR)-based Biacore 4000 biosensor. All binding studies were performed in 10 mM HEPES, 150 mM NaCl, 3 mM EDTA, and 0.05% v/v surfactant Tween-20, pH 7.4 (HBS-ET) running buffer at 25° C. and 37° C. The Biacore CM5 sensor surface was first derivatized by amine coupling with a monoclonal mouse anti-human Fc antibody (REGN2567) to capture anti-CD40 bivalent parental and anti-CD40×CD40 bispecific antibodies. Different concentrations of CD40 reagents, human CD40 extracellular domain expressed with a C-terminal myc-myc-hexahistidine tag (SEQ ID NO: 1114) (“hCD40-MMH”; REGN3094; SEQ ID NO: 53), monkey CD40 extracellular domain expressed with a C-terminal myc-myc-hexahistidine tag (SEQ ID NO: 1114) (“mfCD40-MMH”; REGN3097; SEQ ID NO: 54), and mouse CD40 extracellular domain expressed with a C-terminal myc-myc-hexahistidine tag (SEQ ID NO: 1114) (“mCD40-MMH”; REGN3098; SEQ ID NO: 55), at concentrations ranging from 3.7 nM to 100 nM or 3.3 nM to 90 nM in a series of 3-fold dilutions prepared in HBS-ET running buffer were injected at a flow rate of 30 μL/min for 4 minutes or 50 μL/min for 5 minutes. The dissociation of different CD40 reagents bound to anti-CD40 bivalent parental and anti-CD40×CD40 bispecific antibodies was monitored for 10 minutes in HBS-ET running buffer. At the end of each cycle, the anti-CD40 bivalent parental and anti-CD40×CD40 bispecific antibodies capture surface was regenerated using a 12 sec injection of 20 mM H₃PO₄.
# (§2) The association rate (ka) and dissociation rate (kd) were determined by fitting the real-time binding sensorgrams to a 1:1 binding model with mass transport limitation using Scrubber 2.0c curve-fitting software. Binding dissociation equilibrium constant (KD) and dissociative half-life (t_{1/2}) were calculated from the kinetic rates as: KD(M)=kd/kₐ, and t_{1/2} (min)=[ln(2)/(60*kd)].
row,100 nM Ag Bound,Binder
1,1.6 RU,B3
2,0.2 RU,B4
3,0.2 RU,B5

# Target: T3, human CD40 extracellular domain expressed with a C-terminal myc-myc-hexahistidine tag (human)
# T3 construct: also called hCD40-MMH; hCD40-mmH
# Test: SPR Biacore 4000, mAb captured, 37C
# Protocol: as §1, §2
100 nM Ag Bound,Kd,koff,kon,t1/2,Binder
105 RU,19.4 nM,0.0123 s⁻¹,635000 M⁻¹ s⁻¹,0.9 min,B3
67.2 RU,69.9 nM,0.0803 s⁻¹,1.15e+06 M⁻¹ s⁻¹,0.1 min,B4
66.5 RU,6 nM,0.00372 s⁻¹,620000 M⁻¹ s⁻¹,3.1 min,B5
61.2 RU,0.101 nM,0.000149 s⁻¹,1.47e+06 M⁻¹ s⁻¹,77.5 min,B1
56.6 RU,0.163 nM,0.000125 s⁻¹,769000 M⁻¹ s⁻¹,92.3 min,B2

# Target: T2, human CD40 (hCD40) expressed on cells
# Test: flow cytometry, HEK293/D9/hCD40 cells
# Protocol: Cells were washed with 2% FBS (w/v) in 1×PBS (flow cytometry staining buffer) by centrifugation with benchtop Centrifuge 5810R (Eppendorf®, Hamburg, Germany). Cells were incubated for 30 minutes at 4° C. with serial dilutions of following antibodies ranging from 1.7 pM to 100 nM in flow cytometry staining buffer (1) anti-CD40×CD40 bispecific antibodies, or (2) parental anti-CD40 antibodies (bivalent antibodies comprising 2 fragment antigen-binding [Fab] arms identical to one of the two anti-CD40 Fab of bispecific anti-CD40×CD40 antibodies), or (3) anti-CD40×Irrelevant antibodies (bivalent antibodies that incorporate one Fab arm identical to one of anti-CD40 Fab of anti-CD40×CD40 antibodies and another Fab arm specific to an irrelevant antigen, i.e. birch pollen main allergen Bet v1), or (4) human IgG4 isotype control antibodies with Fc mutation. After washing, cell bound antibodies were detected with 2.5 μg/ml Allophycocyanin (APC)-conjugated goat anti-human IgG antibody specific for the Fcγ fragment (Jackson Immunoresearch, West Grove, PA) for 30 minutes at 4° C. Cells were washed and subsequently fixed with 50% solution of Cytofix™ Fixation Buffer (BD, Franklin Lakes, NJ) in flow cytometry staining buffer for 20 minutes at room temperature. Cells were washed and resuspended in flow cytometry staining buffer and stored at 4° C. for downstream flow cytometry analysis.
# Acquisition of fluorescence signals were recorded on the ZE5 Cell Analyzer (Bio-Rad, Hercules, CA) according to the manufacturer's recommended procedure and flow cytometry data analysis was performed using the open-source R packages flowCore, flowStats, flowDensity, ggCyto, and flowAI. Multiplexed samples were deconvoluted and individual cell populations were identified based on their unique CellTrace™ fluorescence signature. APC Median Fluorescence intensity (MFI) was recorded to indicate the binding intensity of each antibody over a range of concentrations. Antibodies with MFI greater than 1500 at the highest tested concentration (100 nM) were classified as specific binders. In addition, direct binding signals (APC MFI) were analyzed as a function of the antibody concentration and data were fitted with a sigmoidal (four-parameter logistic) dose-response model using GraphPad Prism™ software.
EC50,MFI at 100 nM,Binder
1.3 nM,20200 MFI,B3
0.82 nM,20700 MFI,B4
0.72 nM,20900 MFI,B5
1.9 nM,29500 MFI,B1
1.5 nM,30300 MFI,B2

# Target: T3, human CD40 extracellular domain …
# Test: SPR Biacore 4000, mAb captured, 25C; 25° C.
# Protocol: The equilibrium dissociation constants (KD) for anti-CD40 bivalent and bispecific monoclonal antibodies (mAbs) were determined using a real-time surface plasmon resonance (SPR)-based Biacore 4000 biosensor. All binding studies were performed in 10 mM HEPES, 150 mM NaCl, 3 mM EDTA, and 0.05% v/v surfactant Tween-20, pH 7.4 (HBS-ET) running buffer at 25° C. and 37° C. The Biacore CM5 sensor surface was first derivatized by amine coupling with a monoclonal mouse anti-human Fc antibody (REGN2567) to capture anti-CD40 bivalent parental and anti-CD40×CD40 bispecific antibodies. […] The dissociation of different CD40 reagents bound to anti-CD40 bivalent parental and anti-CD40×CD40 bispecific antibodies was monitored for 10 minutes in HBS-ET running buffer. […]
# as §2
row,kon,Binder
1,385000 M⁻¹ s⁻¹,B3
